By koff is commonly meant the rate constant with which the complex falls apart. What is called kon is the rate constant with which the complex forms. By pKd is commonly meant −log10 of the Kd, conventionally taken in molar units. Read a low pKd as a large Kd.

Results on four substances are retold here after patent US20100092465A1, “TREATMENT OF GRAFT-VERSUS-HOST DISEASE” (priority 2006, published 2010).

The target in test [1] is single-chain mouse IL-27 (FLAG tag, mouse EBI3, 17 amino acid linker, mouse IL-27 p28) (mouse) (UniProt O35228). In words: cell-based or functional assay.
The target in test [2] is single-chain human IL-27 (amino-terminal peptide tag, EBI3, polypeptide linker, IL-27 p28) (human) (UniProt Q14213). In words: cell-based or functional assay.
Test [3] concerns the target single-chain mouse IL-27 (FLAG tag, mouse EBI3, 17 amino acid linker, mouse IL-27 p28) (mouse) (UniProt O35228). In words: SPR, BIACORE 3000; receptor captured by anti-mouse Fc antibody, ligand (lot A1418F) injected; 1:1 model with mass transport. For orientation: Surface plasmon resonance follows binding to a sensor surface in real time, without labels.
Test [4] has the same target. Nature of the test: SPR, BIACORE 3000; receptor amine-coupled to the chip, ligand (A1426F) injected; 1:1 model with mass transport.
Test [5] addresses single-chain human IL-27 (amino-terminal peptide tag, EBI3, polypeptide linker, IL-27 p28) (human) (UniProt Q14213). In words: SPR, BIACORE 3000; receptor amine-coupled to the chip, ligand (A1534F) injected; 1:1 model with mass transport.
Test [6] has as its target IL-27 receptor on mouse spleen cells (mouse) (UniProt O70394). Nature of the test: cell-based or functional assay.
The target in test [7] is IL-27 receptor on total human PBMCs (human) (UniProt Q6UWB1). In words: cell-based or functional assay.
The target in test [8] is IL-27 receptor (IL-27RA and gp130) on BHK-mIL-27R cells (mouse) (UniProt O70394). Nature of the test: saturation binding of 125I-labeled ligand to BHK-mIL-27R cells, 4 hours on ice, gamma counter.
Test [9] has the same target. In words: saturation binding of 125I-labeled ligand to BHK-mIL-27R cells; average of three studies.

pKd: −log10 of the molar value. Values joined by “and” are separate entries in the source; they are usually repeats but may differ in a detail not shown here. Identical values can stand only once.

Chain of IL-27 receptor on mouse spleen cells (mouse) (O70394 25-623, chain 1 of 2): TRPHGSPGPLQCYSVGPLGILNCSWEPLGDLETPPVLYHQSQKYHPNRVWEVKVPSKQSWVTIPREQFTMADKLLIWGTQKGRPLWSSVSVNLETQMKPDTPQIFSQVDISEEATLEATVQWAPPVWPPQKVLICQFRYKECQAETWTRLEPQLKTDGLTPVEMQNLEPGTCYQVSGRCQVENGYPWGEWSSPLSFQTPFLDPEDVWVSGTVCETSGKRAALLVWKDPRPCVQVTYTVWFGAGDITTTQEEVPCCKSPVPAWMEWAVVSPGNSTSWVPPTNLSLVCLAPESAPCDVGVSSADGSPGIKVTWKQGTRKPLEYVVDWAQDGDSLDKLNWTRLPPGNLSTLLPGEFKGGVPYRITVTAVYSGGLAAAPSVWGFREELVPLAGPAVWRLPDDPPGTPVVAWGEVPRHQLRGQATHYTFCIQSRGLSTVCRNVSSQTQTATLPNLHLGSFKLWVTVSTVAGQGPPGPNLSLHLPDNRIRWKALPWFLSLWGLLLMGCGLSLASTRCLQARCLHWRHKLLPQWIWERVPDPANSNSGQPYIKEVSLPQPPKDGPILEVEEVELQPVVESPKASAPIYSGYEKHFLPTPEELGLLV
Chain of IL-27 receptor on mouse spleen cells (mouse) (Q00560 23-917, chain 2 of 2, further chain): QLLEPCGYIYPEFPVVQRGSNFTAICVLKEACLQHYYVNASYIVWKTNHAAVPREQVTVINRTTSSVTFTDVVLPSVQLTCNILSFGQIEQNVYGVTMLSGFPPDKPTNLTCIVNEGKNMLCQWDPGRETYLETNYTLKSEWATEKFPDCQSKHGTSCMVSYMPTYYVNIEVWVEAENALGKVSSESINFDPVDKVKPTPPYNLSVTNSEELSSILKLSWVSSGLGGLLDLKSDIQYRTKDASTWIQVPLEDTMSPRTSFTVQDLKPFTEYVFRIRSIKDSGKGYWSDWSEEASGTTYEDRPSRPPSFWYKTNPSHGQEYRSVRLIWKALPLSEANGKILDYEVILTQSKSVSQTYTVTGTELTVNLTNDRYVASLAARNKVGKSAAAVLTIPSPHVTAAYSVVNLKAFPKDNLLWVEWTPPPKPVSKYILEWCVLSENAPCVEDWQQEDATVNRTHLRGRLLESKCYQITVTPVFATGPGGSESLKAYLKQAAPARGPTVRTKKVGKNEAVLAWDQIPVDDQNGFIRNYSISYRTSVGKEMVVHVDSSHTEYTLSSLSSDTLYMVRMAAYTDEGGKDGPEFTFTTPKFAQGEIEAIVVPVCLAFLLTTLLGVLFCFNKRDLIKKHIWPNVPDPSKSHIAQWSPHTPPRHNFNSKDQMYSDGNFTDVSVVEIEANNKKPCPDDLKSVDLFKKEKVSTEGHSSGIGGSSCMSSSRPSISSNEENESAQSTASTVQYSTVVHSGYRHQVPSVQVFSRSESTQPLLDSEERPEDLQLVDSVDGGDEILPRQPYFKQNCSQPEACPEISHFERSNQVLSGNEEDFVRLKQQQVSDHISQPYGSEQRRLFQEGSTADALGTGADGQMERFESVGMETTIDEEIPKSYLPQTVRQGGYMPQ
Chain of IL-27 receptor on total human PBMCs (human) (Q6UWB1 33-636, chain 1 of 2): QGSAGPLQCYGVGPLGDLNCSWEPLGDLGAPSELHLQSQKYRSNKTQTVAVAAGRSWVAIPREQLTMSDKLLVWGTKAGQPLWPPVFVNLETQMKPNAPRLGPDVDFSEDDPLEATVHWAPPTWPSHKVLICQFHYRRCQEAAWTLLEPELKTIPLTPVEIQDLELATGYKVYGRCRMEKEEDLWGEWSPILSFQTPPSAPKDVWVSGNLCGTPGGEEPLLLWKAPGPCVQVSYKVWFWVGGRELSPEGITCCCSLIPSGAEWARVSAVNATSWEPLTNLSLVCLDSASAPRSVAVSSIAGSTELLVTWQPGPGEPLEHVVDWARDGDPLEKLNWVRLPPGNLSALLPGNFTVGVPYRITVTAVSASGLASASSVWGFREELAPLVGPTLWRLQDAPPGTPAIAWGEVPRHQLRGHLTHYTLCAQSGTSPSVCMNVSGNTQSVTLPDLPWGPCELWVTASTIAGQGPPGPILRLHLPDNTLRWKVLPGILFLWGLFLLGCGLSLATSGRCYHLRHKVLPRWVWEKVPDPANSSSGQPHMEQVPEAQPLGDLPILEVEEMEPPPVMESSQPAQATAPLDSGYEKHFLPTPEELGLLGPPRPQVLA
Chain of IL-27 receptor on total human PBMCs (human) (P40189 23-918, chain 2 of 2, further chain): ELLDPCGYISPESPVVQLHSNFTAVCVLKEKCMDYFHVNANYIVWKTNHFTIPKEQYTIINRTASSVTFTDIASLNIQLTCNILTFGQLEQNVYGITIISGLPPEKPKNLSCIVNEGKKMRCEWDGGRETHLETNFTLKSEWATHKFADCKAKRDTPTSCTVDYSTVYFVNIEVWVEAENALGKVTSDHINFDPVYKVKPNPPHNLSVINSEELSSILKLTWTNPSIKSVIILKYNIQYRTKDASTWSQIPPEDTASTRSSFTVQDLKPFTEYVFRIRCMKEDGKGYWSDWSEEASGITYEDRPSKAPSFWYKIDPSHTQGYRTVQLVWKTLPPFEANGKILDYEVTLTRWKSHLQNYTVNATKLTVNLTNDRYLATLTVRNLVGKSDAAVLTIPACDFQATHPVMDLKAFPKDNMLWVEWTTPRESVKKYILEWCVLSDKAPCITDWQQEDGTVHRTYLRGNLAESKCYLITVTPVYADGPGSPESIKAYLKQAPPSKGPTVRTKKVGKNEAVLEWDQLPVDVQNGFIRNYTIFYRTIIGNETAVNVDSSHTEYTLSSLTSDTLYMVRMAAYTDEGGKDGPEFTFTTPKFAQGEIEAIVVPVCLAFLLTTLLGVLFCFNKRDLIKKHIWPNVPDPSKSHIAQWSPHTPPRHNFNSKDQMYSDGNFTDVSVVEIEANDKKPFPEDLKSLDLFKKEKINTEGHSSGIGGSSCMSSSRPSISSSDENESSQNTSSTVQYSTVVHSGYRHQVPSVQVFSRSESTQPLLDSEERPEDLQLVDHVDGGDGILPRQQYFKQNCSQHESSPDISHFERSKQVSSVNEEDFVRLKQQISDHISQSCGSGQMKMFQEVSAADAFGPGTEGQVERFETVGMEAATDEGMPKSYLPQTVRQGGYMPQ

Consider “IL27RAm(mFc1): extracellular domain of mouse IL27RA fused to a wild type BALB/c mouse gamma2a constant region Fc tag (from UniProt O70394 25-510) (Fc fusion)”, for which, in [1], the IC50 (nM), phospho-STAT3 in mouse spleens, ligand at EC90 was 0.18 nM; the IC50 (nM), phospho-STAT3 in total human PBMCs, ligand at EC90 is 4.83 nM; the IL-2 concentration, 48 hr, mIL-27RA 5 ug/ml + IL-27 is 4020 pg/mL; the IL-2 concentration, 48 hr, mIL-27RA 10 ug/ml + IL-27 was 5220 pg/mL. In [1], the IL-2 concentration, 48 hr, mIL-27RA 10 ug/ml + IL-27 (second row) was 4920 pg/mL; the IL-2 concentration, 72 hr, mIL-27RA 5 ug/ml + IL-27 was 5740 pg/mL; the IL-2 concentration, 72 hr, mIL-27RA 10 ug/ml + IL-27 turned out to be 6700 pg/mL; the IL-2 concentration, 72 hr, mIL-27RA 10 ug/ml + IL-27 (second row) turned out to be 12200 pg/mL. The substance further showed a block of the ability of mouse IL-27 to inhibit IL-2 production by naive CD4 T cells in test [1] of 50%. Also, in [2], the IC50 (nM), phospho-STAT3 in mouse spleens, ligand at EC90 turned out to be 9.3 nM and the IC50 (nM), phospho-STAT3 in total human PBMCs, ligand at EC90 worked out at 1370 nM. Besides, in test [3], the off-rate constant (koff) turned out to be 0.0012 s⁻¹ and the kon is 1e+07 M⁻¹ s⁻¹.
In the case of “human IL27RA-Fc5 fusion protein (Fc fusion)”, in [4], the koff was 0.0018 s⁻¹ and the kon was found to be 8.1e+06 M⁻¹ s⁻¹. In test [5], this substance showed a koff of 0.0019 s⁻¹ and a kon of 1e+07 M⁻¹ s⁻¹. Also, in [1], the IC50 (nM), phospho-STAT3 in mouse spleens, ligand at EC90 came out at 0.14 nM; the IC50 (nM), phospho-STAT3 in total human PBMCs, ligand at EC90 came to 2.97 nM; the IL-2 concentration, 48 hr, hIL-27RA 5 ug/ml + IL-27 was determined as 5780 pg/mL; the IL-2 concentration, 48 hr, hIL-27RA 10 ug/ml + IL-27 was determined as 5770 pg/mL. In addition, in test [1], the IL-2 concentration, 48 hr, hIL-27RA 10 ug/ml + IL-27 (second row) amounted to 5330 pg/mL; the IL-2 concentration, 72 hr, hIL-27RA 5 ug/ml + IL-27 was 1870 pg/mL; the IL-2 concentration, 72 hr, hIL-27RA 10 ug/ml + IL-27 was 28600 pg/mL; the IL-2 concentration, 72 hr, hIL-27RA 10 ug/ml + IL-27 (second row) came to 17500 pg/mL. Besides, in test [1], the block of the ability of mouse IL-27 to inhibit IL-2 production by naive CD4 T cells was found to be 50%. Moreover, in [2], the IC50 (nM), phospho-STAT3 in mouse spleens, ligand at EC90 worked out at 0.32 nM and the IC50 (nM), phospho-STAT3 in total human PBMCs, ligand at EC90 is 0.95 nM.
Substance “single-chain human IL-27 (amino-terminal peptide tag, EBI3, polypeptide linker, IL-27 p28) (from UniProt Q14213 21-229; Q8NEV9 29-243) (ligand)” returned an EC90 concentration, STAT3 phosphorylation (BIO-PLEX Phospho-Stat3 assay), mouse spleens in test [6] of 2 nM. For the same substance, the EC90 concentration, STAT3 phosphorylation (BIO-PLEX Phospho-Stat3 assay), total human PBMCs in test [7] stood at 2 nM.
As to “single-chain mouse IL-27 (FLAG tag, mouse EBI3, 17 amino acid linker, mouse IL-27 p28) (from UniProt O35228 19-228; Q8K3I6 29-234) (ligand)”, the negative-log Kd (pKd) in test [8] is 9.05 and 8.87 and 8.94; in test [9], 8.94. Also, the EC90 concentration, STAT3 phosphorylation (BIO-PLEX Phospho-Stat3 assay), mouse spleens in test [6] is 0.2 nM. Also, the EC90 concentration, STAT3 phosphorylation (BIO-PLEX Phospho-Stat3 assay), total human PBMCs in test [7] is 2 nM.
